{"source": "patent US20250197502A1", "about": "(EXELIXIS, published 2025)", "key": {"[1]": {"molecular_target": "T1, Human CD47, soluble His-tagged extracellular domain (AcroBiosystems Cat# CD7-H82E9) (human, UniProt Q08722 19-139)", "T1 construct": "Bought reagent; also called biotinylated human CD47 His-Avitag; not shown: His tag / His-Avitag of the bought reagent", "T1 sequence (Q08722 19-139)": "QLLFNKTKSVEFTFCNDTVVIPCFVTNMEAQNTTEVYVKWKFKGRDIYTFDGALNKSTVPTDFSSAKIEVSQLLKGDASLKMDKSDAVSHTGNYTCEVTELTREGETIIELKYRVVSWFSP", "assay": "phage display selection and phage ELISA on biotinylated human CD47 extracellular domain"}, "[2]": {"molecular_target": "T2, Human PD-L1, soluble His-tagged (AcroBiosystems Cat# PD1-H82E5) (human, UniProt Q9NZQ7 19-238)", "T2 construct": "The Carterra reagent PD1-H82E5 is only called a soluble, His-tagged antigen; The Biacore reagent is not specified; also called PD-L1/B7-H1; not shown: His tag of the bought reagent", "T2 sequence (Q9NZQ7 19-238)": "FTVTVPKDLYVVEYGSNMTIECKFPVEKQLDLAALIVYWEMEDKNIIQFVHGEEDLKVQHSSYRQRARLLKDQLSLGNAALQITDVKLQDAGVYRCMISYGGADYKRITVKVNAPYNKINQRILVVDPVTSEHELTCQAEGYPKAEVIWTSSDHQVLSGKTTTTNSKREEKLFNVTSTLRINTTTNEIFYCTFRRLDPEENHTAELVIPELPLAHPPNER", "assay": "phage display selection and phage ELISA on biotinylated human PD-L1 extracellular domain, then affinity maturation"}, "[3]": {"molecular_target": "T3, Human CD47 on the cell surface (tumor cell lines; human red blood cells) (human, UniProt Q08722 19-323)", "T3 sequence (Q08722 19-323 limits assumed)": "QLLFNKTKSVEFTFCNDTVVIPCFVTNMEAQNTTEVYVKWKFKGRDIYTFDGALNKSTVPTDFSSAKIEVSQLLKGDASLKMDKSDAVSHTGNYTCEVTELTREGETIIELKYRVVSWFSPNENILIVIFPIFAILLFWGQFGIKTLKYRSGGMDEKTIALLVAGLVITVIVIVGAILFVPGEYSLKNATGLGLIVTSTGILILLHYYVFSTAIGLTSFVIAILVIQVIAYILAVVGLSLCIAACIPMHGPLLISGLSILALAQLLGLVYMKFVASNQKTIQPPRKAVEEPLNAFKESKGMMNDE", "assay": "cell-based or functional assay"}, "[4]": {"molecular_target": "T4, Human PD-L1 on the cell surface (tumor cell lines) (human, UniProt Q9NZQ7 19-290)", "T4 sequence (Q9NZQ7 19-290 limits assumed)": "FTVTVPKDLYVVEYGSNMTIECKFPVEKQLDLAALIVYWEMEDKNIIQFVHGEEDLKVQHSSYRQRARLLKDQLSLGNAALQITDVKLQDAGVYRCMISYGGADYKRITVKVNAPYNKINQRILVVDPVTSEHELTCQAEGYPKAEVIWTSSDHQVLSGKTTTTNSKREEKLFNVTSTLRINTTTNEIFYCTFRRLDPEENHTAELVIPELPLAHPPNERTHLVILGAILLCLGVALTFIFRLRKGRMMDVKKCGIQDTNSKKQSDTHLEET", "assay": "cell-based or functional assay"}, "[5]": {"molecular_target": "T3, Human CD47 on the cell surface (tumor …)", "assay": "cell-based or functional assay", "remark": "listed apart in the source"}, "[6]": {"molecular_target": "T4, Human PD-L1 on the cell surface (tumor …)", "assay": "cell-based or functional assay", "remark": "listed apart in the source"}, "[7]": {"molecular_target": "T5, CD47 and PD-L1 co-expressed on the surface of tumor cells (PDL1-MDA-MB-231, NCI-H292, HT-1080) (human, UniProt Q08722 19-323; Q9NZQ7 19-290)", "T5 sequence (Q08722 19-323 limits assumed, chain 1 of 2)": "as the sequence (Q08722 19-323 limits assumed) above", "T5 sequence (Q9NZQ7 19-290 limits assumed, chain 2 of 2)": "as the sequence (Q9NZQ7 19-290 limits assumed) above", "assay": "cell-based or functional assay"}, "[8]": {"molecular_target": "T1, Human CD47, soluble His-tagged …", "assay": "Biacore (SPR); format not described"}, "[9]": {"molecular_target": "T6, Cynomolgus CD47, soluble His-tagged (AcroBiosystems Cat# CD7-C52H1) (cynomolgus, UniProt A0A2K5X523 19-139)", "T6 construct": "Soluble antigen; also called Cyno CD47; cyno-CD47", "assay": "Biacore (SPR); format not described"}, "[10]": {"molecular_target": "T2, Human PD-L1, soluble His-tagged …", "assay": "Biacore (SPR); format not described"}, "[11]": {"molecular_target": "T7, Cynomolgus PD-L1, soluble His-tagged (AcroBiosystems Cat# PD1-C52H4) (cynomolgus, UniProt G7PSE7 19-239)", "T7 construct": "Soluble antigen; also called Cyno PD-L1; cyno-PD-L1", "T7 sequence (G7PSE7 entry or part of it)": "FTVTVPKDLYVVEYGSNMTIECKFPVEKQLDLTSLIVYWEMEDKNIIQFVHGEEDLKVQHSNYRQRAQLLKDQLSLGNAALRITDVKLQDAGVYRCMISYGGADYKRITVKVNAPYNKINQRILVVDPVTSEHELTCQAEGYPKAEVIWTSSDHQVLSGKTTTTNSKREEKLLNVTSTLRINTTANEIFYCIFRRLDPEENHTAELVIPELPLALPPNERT", "assay": "Biacore (SPR); format not described"}, "[12]": {"molecular_target": "T5, CD47 and PD-L1 co-expressed on the …", "assay": "flow cytometry (MFI) on HT-1080 cells endogenously expressing CD47 and PD-L1"}, "[13]": {"molecular_target": "T5, CD47 and PD-L1 co-expressed on the …", "assay": "flow cytometry (MFI) on NCI-H292 cells endogenously expressing CD47 and PD-L1"}, "[14]": {"molecular_target": "T1, Human CD47, soluble His-tagged …", "assay": "Carterra biosensor kinetics; bsAb1 coupled to HC30M chip, soluble His-tagged antigen 1.2-900 nM, global fit", "method": "(§1) To obtain accurate kinetic constants, the bispecific antibody was prepared at concentrations ranging from 1 to 10 μg/mL in 10 mM NaOAc (pH 4.25 or pH 4.5), and the coupling reaction was performed in running buffer (25 mM MES, pH 5.5) using multiple chip locations for each concentration. In the next association step, the binding interaction of antigen to the coupled antibody was measured. In general, each binding event consisted of a one minute baseline interval followed by a 5 minute antigen injection and a 15 minute dissociation with HBSTE buffer (10 mM HEPES, 150 mM NaCl, 3 mM EDTA, 0.01% Tween-20, pH 7.4) as running buffer. […] Antigens for binding studies were then prepared by reconstituting according to manufacturer recommendation. To obtain accurate kinetic constants, the reconstituted antigens were subsequently diluted into HBSTE buffer to final concentrations ranging from 1.2 nM to 900 nM. Injections of the antigens at each concentration were performed in series. In the next dissociation step, a regeneration process consisting of three times of injection for 25 seconds with 0.1 M glycine (pH 2.8), 1 M NaCl was performed between each antigen binding event, by which the bound antigen on the surface of the chip was allowed to dissociate. Carterra Kinetics analysis package was used to calculate rate constants (kₐ, kd) and corresponding equilibrium dissociation constants (Kd). Binding data were first recovered by double-referencing to subtract the closest reference cell and blank injection."}, "[15]": {"molecular_target": "T6, Cynomolgus CD47, soluble His-tagged …", "assay": "Carterra biosensor kinetics; bsAb1 coupled to HC30M chip, soluble His-tagged antigen 1.2-900 nM, global fit", "method": "as §1"}, "[16]": {"molecular_target": "T2, Human PD-L1, soluble His-tagged …", "assay": "Carterra biosensor kinetics; bsAb1 coupled to HC30M chip, soluble His-tagged antigen 1.2-900 nM, global fit", "method": "as §1"}, "[17]": {"molecular_target": "T7, Cynomolgus PD-L1, soluble His-tagged …", "assay": "Carterra biosensor kinetics; bsAb1 coupled to HC30M chip, soluble His-tagged antigen 1.2-900 nM, global fit", "method": "as §1"}, "[18]": {"molecular_target": "T5, CD47 and PD-L1 co-expressed on the …", "assay": "flow cytometry, MFI on NCI-H292 tumor cells mixed with human RBC (tumor cells labelled with CellTrace Violet)"}, "[19]": {"molecular_target": "T5, CD47 and PD-L1 co-expressed on the …", "assay": "flow cytometry (MFI) on PDL1-MDA-MB-231 cells co-expressing CD47 and PD-L1; PDL1-MDA-MB-231 cells carrying both CD47 (~500,000) and PD-L1 (~1,500,000)"}}}
{"binder": "Antibody mAb-C (selected CD47 binding antibody) (antibody, IgG1, V domains shown, Selected as a Fab on phage) VH: EVQLVESGGGLVQPGGSLRLSCAASGFTFSWYYIHWVRQAPGKGLEWVAYIDSSSGYTEYADSVKGRFTISADTSKNTAYLQMNSLRAEDTAVYYCARGGYLGMDYWGQGTLVTVSS VL: DIQMTQSPSSLSASVGDRVTITCRASQSVSSAVAWYQQKPGKAPKLLIYSASSLYSGVPSRFSGSRSGTDFTLTISSLQPEDFATYYCQQSRSRPRTFGQGTKVEIK", "values": [{"measurement": "binding result", "setting": "[1]", "value": "binds"}]}
{"binder": "Antibody mAb-P (selected and then affinity matured PD-L1 binding antibody) (antibody, human IgG1, V domains shown) VH: EVQLVESGGGLVQPGGSLRLSCAASGFTFRSYYIHWVRQAPGKGLEWVATISSYGVFTYYADSVKGRFTISADTSKNTAYLQMNSLRAEDTAVYYCARGTTLTPVLDYWGQGTLVTVSS VL: DIQMTQSPSSLSASVGDRVTITCRASQSVSSAVAWYQQKPGKAPKLLIYSASSLSSGVPSRFSGSRSGTDFTLTISSLQPEDFATYYCQQFGAEPITFGQGTKVEIK", "values": [{"measurement": "binding result", "setting": "[2]", "value": "binds"}]}
{"binder": "bsAb1 (mAb-C x mAb-P in an exemplary format; bispecific anti-CD47 x anti-PD-L1 antibody of four polypeptide chains) (bispecific antibody, Chains 1+2 form the CD47 arm (mAb-C), chains 3+4 the PD-L1 arm (mAb-P); also called the selected bispecific antibody) chain 1: not shown chain 2: EVQLVESGGGLVQPGGSLRLSCAASGFTFSWYYIHWVRQAPGKGLEWVAYIDSSSGYTEYADSVKGRFTISADTSKNTAYLQMNSLRAEDTAVYYCARGGYLGMDYWGQGTLVTVSSAQPREPQVYTLPPCRDWLTKNQVSLTCLVKGFYPSDIAVEWESNGQPENNYKTTPPVLDSDGSFFLYSKLTVDKSRWQQGNVFSCSVMHEALHNHYTQKSLSLSPGK chain 3: not shown chain 4: EVQLVESGGGLVQPGGSLRLSCAASGFTFRSYYIHWVRQAPGKGLEWVATISSYGVFTYYADSVKGRFTISADTSKNTAYLQMNSLRAEDTAVYYCARGTTLTPVLDYWGQGTLVTVSSASTKGPSVFPLAPSSKSTSGGTAALGCLVKDYFPEPVTVSWNSGALTSGVHTFPAVLQSSGLYSLSSVVTVPSSSLGTQTYICNVNHKPSNTKVDKKVEPKSC", "values": [{"measurement": "EC50 of inhibiting CD47/SIRPα signaling in PDL1-MDA-MB-231 cells (PathHunter chemiluminescent signal)", "setting": "[3]", "value": 0.076, "unit": "nM"}, {"measurement": "EC50 of inhibiting PD-1/PD-L1 interaction in PDL1-MDA-MB-231 cells (PathHunter chemiluminescent signal)", "setting": "[4]", "value": 0.22, "unit": "nM"}, {"measurement": "IC50, CD47/SIRPa block (PathHunter CD47/SIRPα signaling bioassay)", "setting": "[5]", "value": 0.8, "unit": "nM"}, {"measurement": "IC50, PD-L1/PD-1 block (PathHunter PD-1/PD-L1 signaling bioassay)", "setting": "[6]", "value": 0.5, "unit": "nM"}, {"measurement": "ADCP (phagocytosis of NCI-H292 cells) EC50", "setting": "[7]", "value": 0.2, "unit": "nM"}, {"measurement": "Kd", "setting": "[8]", "value": 21, "unit": "nM"}, {"measurement": "koff", "setting": "[8]", "value": 0.0141, "unit": "s⁻¹"}, {"measurement": "Kd", "setting": "[9]", "value": 25, "unit": "nM"}, {"measurement": "koff", "setting": "[9]", "value": 0.0137, "unit": "s⁻¹"}, {"measurement": "Kd", "setting": "[10]", "value": 0.05, "unit": "nM"}, {"measurement": "koff", "setting": "[10]", "value": 0.000164, "unit": "s⁻¹"}, {"measurement": "Kd", "setting": "[11]", "value": 0.034, "unit": "nM"}, {"measurement": "koff", "setting": "[11]", "value": 0.00012, "unit": "s⁻¹"}, {"measurement": "EC50", "setting": "[12]", "value": 0.2, "unit": "nM"}, {"measurement": "EC50", "setting": "[13]", "value": 0.7, "unit": "nM"}, {"measurement": "Kd", "setting": "[14]", "value": 27, "unit": "nM"}, {"measurement": "koff", "setting": "[14]", "value": 0.0093, "unit": "s⁻¹"}, {"measurement": "kon", "setting": "[14]", "value": 350000, "unit": "M⁻¹ s⁻¹"}, {"measurement": "Kd", "setting": "[15]", "value": 24, "unit": "nM"}, {"measurement": "koff", "setting": "[15]", "value": 0.0046, "unit": "s⁻¹"}, {"measurement": "kon", "setting": "[15]", "value": 190000, "unit": "M⁻¹ s⁻¹"}, {"measurement": "Kd", "setting": "[16]", "value": 0.15, "unit": "nM"}, {"measurement": "koff", "setting": "[16]", "value": 0.00013, "unit": "s⁻¹"}, {"measurement": "kon", "setting": "[16]", "value": 980000, "unit": "M⁻¹ s⁻¹"}, {"measurement": "Kd", "setting": "[17]", "value": 0.18, "unit": "nM"}, {"measurement": "koff", "setting": "[17]", "value": 0.00015, "unit": "s⁻¹"}, {"measurement": "kon", "setting": "[17]", "value": 890000, "unit": "M⁻¹ s⁻¹"}, {"measurement": "EC50 (read off the curve)", "setting": "[18]", "value": "~0.7", "unit": "nM"}, {"measurement": "EC50", "setting": "[19]", "value": 0.22, "unit": "nM"}]}
